Article doi:10.1101/2022.02.28.481274 (bioRxiv, 2022)

T1: NocΔCTD-His6 (Bacillus subtilis, UniProt P37524 1-242)
T1 sequence: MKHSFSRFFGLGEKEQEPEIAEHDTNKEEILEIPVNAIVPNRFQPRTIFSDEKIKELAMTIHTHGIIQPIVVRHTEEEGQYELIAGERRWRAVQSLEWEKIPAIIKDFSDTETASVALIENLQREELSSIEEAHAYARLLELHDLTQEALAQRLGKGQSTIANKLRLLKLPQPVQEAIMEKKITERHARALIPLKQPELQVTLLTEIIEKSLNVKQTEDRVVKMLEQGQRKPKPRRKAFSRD

B1: 16-bp NBS (dsDNA)
DNA 1: TATTTCCCGGGAAATA
DNA 2: TATTTCCCGGGAAATA
B2: Bacillus subtilis NocΔCTD-His6 (domain or fragment, UniProt P37524 1-242, looked up)
chain: T1 sequence

Tests used:
NocΔCTD-His6 = biological target: T1, NocΔCTD-His6; assay: X-ray crystallography
crystal structure = biological target: the molecule itself; assay: crystal structure

| Binder | binding result (NocΔCTD-His6) | stoichiometry N (crystal structure) |
| --- | --- | --- |
| B1 | binds | – |
| B2 | – | 2 |
